Measurements as given in patent US20120041175A1 (ROCKEFELLER UNIVERISTY, published 2012).
Blank lines part the entries; values can stand above or below the binder they belong to.

What was measured:
[1] = biological target: Myc-Vps34/PtdIns3K (Myc-tagged hVps34) (human, UniProt Q8NEB9 1-887); assay: cell-based or functional assay
[2] = biological target: T1, Rubicon-EGFP (full-length mouse Rubicon tagged with EGFP at the C-terminus) (mouse, UniProt Q80U62 1-956); assay: co-IP with anti-GFP antibody from co-transfected HEK 293T cells, anti-FLAG blot
T1 construct: also called EGFP-tagged Rubicon; GFP-tagged full-length Rubicon; not shown: EGFP tag at the C-terminus (pEGFP-N3 vector)
T1 sequence: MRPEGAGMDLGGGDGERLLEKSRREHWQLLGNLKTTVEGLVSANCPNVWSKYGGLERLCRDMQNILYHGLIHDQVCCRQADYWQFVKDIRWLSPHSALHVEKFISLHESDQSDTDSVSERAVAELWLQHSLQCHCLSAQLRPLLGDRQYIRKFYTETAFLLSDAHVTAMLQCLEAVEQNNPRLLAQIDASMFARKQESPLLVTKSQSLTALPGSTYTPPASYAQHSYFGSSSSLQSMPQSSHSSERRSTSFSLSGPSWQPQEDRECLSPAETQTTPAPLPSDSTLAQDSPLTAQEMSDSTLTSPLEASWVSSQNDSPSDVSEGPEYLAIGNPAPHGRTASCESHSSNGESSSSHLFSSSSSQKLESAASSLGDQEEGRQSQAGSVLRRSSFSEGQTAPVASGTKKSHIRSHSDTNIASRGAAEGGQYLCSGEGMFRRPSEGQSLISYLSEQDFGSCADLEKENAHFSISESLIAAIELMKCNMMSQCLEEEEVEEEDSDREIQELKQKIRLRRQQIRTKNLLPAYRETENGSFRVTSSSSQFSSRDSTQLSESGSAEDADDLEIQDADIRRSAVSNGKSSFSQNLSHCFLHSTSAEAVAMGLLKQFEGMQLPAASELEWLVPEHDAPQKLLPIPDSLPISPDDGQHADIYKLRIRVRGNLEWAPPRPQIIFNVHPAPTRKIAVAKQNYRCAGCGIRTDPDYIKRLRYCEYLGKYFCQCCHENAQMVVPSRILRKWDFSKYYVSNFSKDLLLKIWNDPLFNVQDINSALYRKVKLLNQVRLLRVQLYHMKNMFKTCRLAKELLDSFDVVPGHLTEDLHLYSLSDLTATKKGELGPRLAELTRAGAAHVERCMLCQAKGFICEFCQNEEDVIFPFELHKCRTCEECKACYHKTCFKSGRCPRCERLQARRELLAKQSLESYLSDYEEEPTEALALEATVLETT
From the text: (§1) FIG. 2A-E. Mapping of the binding domains that mediate the interaction between Beclin 1 and ATG14L/Rubicon. (A) Schematic representations of Beclin 1, ATG14L and Rubicon domain structures and the construction of multiple deletion mutants. The Beclin 1 mutants were tagged with FLAG at N-termini. The ATG14L or Rubicon mutants were tagged with EGFP at C-termini. (B) and (C) Domain mapping in Beclin 1 sequence required for binding ATG14L or Rubicon. HEK 293T cells were co-transfected with FLAG-tagged Beclin 1 mutant constructs and GFP-tagged full-length ATG14L […]. The immunoprecipitation was performed with anti-GFP antibody, followed by Western blotting with anti-FLAG antibody.
(§2) DNA plasmids were transfected into HEK 293T cells for immunoprecipitation. For Co-immunoprecipitation experiments, two or three plasmids were transfected simultaneously in equal amount. Cells were lysed in immunoprecipitation lysis buffer (20 mM HEPES, pH7.4/1 mM MgCl2/0.25 mM CaCl2/0.2% Triton X-100/150 mM NaCl/protease inhibitor and PMSF-pepstatin/DNaseI). For immunoprecipitation with GFP, ATG14L or Rubicon antibody, Dynabeads M-270 E-proxy (Invitrogen, Carlsbad, Calif.) were conjugated with each antibody, and incubated with cell lysate at 4° C. for 2 hours. After the beads were washed in ATG14L or Rubicon lysis buffer for 5 times, proteins were eluted by incubating beads in elution buffer (0.5 mM EDTA, pH8/0.5N NH₃.H₂O) at room temperature for 20 minutes and dried with vacuum speed centrifuge. For FLAG-tagged protein IP, Anti-FLAG M2 affinity resin (Sigma, St Louis, Mo.) was used and the manufacture's protocol was followed.

[3] = biological target: T2, ATG14L-EGFP (full-length mouse ATG14L tagged with EGFP at the C-terminus) (mouse, UniProt Q8CDJ3 1-492); assay: as above
T2 construct: Mouse cDNA cloned into pEGFP-N3 and expressed in HEK 293/293T or HeLa cells; also called EGFP-tagged ATG14L; GFP-tagged full-length ATG14L; not shown: EGFP tag at the C-terminus (pEGFP-N3 vector)
From the text: as §1, §2

[4] = biological target: T2, ATG14L-EGFP (full-length mouse ATG14L …); assay: co-IP with anti-GFP antibody from co-transfected HEK 293T cells; anti-FLAG blot
From the text: as §1
DNA plasmids were transfected into HEK 293T cells for immunoprecipitation. For Co-immunoprecipitation experiments, two or three plasmids were transfected simultaneously in equal amount. Cells were lysed in immunoprecipitation lysis buffer (20 mM HEPES, pH7.4/1 mM MgCl2/0.25 mM CaCl2/0.2% Triton X-100/150 mM NaCl/protease inhibitor and PMSF-pepstatin/DNaseI). For immunoprecipitation with GFP, ATG14L or Rubicon antibody, Dynabeads M-270 E-proxy (Invitrogen, Carlsbad, Calif.) were conjugated with each antibody, and incubated with cell lysate at 4° C. for 2 hours. […]

[5] = biological target: T1, Rubicon-EGFP (full-length mouse Rubicon …); assay: co-IP with anti-GFP antibody from co-transfected HEK 293T cells (FIG. 11)
[6] = biological target: T2, ATG14L-EGFP (full-length mouse ATG14L …); assay: as above
[7] = biological target: T3, ATG14L (endogenous, mouse tissue or NIH 3T3 cells) (mouse, UniProt Q8CDJ3 1-492); assay: co-IP of endogenous proteins with anti-ATG14L antibody from NIH 3T3 cell lysates, Western blot
T3 construct: also called BISC

Sequence of Myc-Vps34/PtdIns3K (Myc-tagged hVps34) (Q8NEB9 whole entry): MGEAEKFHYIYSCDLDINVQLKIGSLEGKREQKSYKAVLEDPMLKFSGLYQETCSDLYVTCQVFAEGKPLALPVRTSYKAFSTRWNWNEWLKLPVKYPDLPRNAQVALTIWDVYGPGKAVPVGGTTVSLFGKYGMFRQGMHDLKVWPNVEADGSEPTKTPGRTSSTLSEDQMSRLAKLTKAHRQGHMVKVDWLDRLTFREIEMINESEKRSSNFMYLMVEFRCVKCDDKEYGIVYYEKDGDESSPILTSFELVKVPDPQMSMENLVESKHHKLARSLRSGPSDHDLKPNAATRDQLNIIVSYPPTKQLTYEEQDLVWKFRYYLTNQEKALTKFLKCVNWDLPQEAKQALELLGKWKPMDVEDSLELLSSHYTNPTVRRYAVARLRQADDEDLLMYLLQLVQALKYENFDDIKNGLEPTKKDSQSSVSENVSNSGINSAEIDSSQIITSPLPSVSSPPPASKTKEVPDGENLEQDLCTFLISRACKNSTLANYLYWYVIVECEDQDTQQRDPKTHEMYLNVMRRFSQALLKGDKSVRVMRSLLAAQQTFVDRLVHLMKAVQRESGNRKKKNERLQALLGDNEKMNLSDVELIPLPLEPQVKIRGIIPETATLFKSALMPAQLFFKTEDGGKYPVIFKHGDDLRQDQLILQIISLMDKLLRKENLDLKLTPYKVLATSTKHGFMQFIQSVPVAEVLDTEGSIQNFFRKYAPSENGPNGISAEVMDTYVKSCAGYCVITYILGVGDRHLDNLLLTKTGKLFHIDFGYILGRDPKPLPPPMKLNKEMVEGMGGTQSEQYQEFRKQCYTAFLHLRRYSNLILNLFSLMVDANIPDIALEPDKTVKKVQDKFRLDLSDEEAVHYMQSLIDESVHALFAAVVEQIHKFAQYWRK

B1: FLAG-Rubicon (mouse Rubicon tagged with FLAG at the N-terminus) (other, not shown: small tags and cut ends)
chain: MRPEGAGMDLGGGDGERLLEKSRREHWQLLGNLKTTVEGLVSANCPNVWSKYGGLERLCRDMQNILYHGLIHDQVCCRQADYWQFVKDIRWLSPHSALHVEKFISLHESDQSDTDSVSERAVAELWLQHSLQCHCLSAQLRPLLGDRQYIRKFYTETAFLLSDAHVTAMLQCLEAVEQNNPRLLAQIDASMFARKQESPLLVTKSQSLTALPGSTYTPPASYAQHSYFGSSSSLQSMPQSSHSSERRSTSFSLSGPSWQPQEDRECLSPAETQTTPAPLPSDSTLAQDSPLTAQEMSDSTLTSPLEASWVSSQNDSPSDVSEGPEYLAIGNPAPHGRTASCESHSSNGESSSSHLFSSSSSQKLESAASSLGDQEEGRQSQAGSVLRRSSFSEGQTAPVASGTKKSHIRSHSDTNIASRGAAEGGQYLCSGEGMFRRPSEGQSLISYLSEQDFGSCADLEKENAHFSISESLIAAIELMKCNMMSQCLEEEEVEEEDSDREIQELKQKIRLRRQQIRTKNLLPAYRETENGSFRVTSSSSQFSSRDSTQLSESGSAEDADDLEIQDADIRRSAVSNGKSSFSQNLSHCFLHSTSAEAVAMGLLKQFEGMQLPAASELEWLVPEHDAPQKLLPIPDSLPISPDDGQHADIYKLRIRVRGNLEWAPPRPQIIFNVHPAPTRKIAVAKQNYRCAGCGIRTDPDYIKRLRYCEYLGKYFCQCCHENAQMVVPSRILRKWDFSKYYVSNFSKDLLLKIWNDPLFNVQDINSALYRKVKLLNQVRLLRVQLYHMKNMFKTCRLAKELLDSFDVVPGHLTEDLHLYSLSDLTATKKGELGPRLAELTRAGAAHVERCMLCQAKGFICEFCQNEEDVIFPFELHKCRTCEECKACYHKTCFKSGRCPRCERLQARRELLAKQSLESYLSDYEEEPTEALALEATVLETT
Vps34 kinase activity (radioactive PtdIns(3)P normalized against immunoprecipitated Myc-tagged Vps34), over-expressed Rubicon against empty vector, in the absence of Beclin 1 [1]: 0.58 ratio

B4: FLAG-ATG14L (mouse ATG14L tagged with FLAG at the N-terminus) (other, not shown: small tags and cut ends)
chain: MASPSGKGSWTPEAPGFGPRALARDLVDSVDDAEGLYVAVERCPLCNTTRRRLTCAKCVQSGDFVYFDGRDRERFIDKKERLSQLKNKQEEFQKEVLKAMEGKRLTDQLRWKIMSCKMRIEQLKQTICKGNEEMKKNSEGLLKNKEKNQKLYSRAQRHQEKKEKIQRHNRKLGDLVEKKTIDLKSHYERLARLRRSHILELTSIIFPIDEVKTSGRDPADVSSETDSAMTSSMVSKLAEARRTTYLSGRWVCDDHNGDTSISITGPWISLPNNGDYSAYYNWVEEKKTTQGPDMEHNNPAYTISAALGYATQLVNIVSHILDINLPKKLCNSEFCGENLSKQKLTRAVRKLNANILYLCSSQHVNLDQLQPLHTLRNLMHLVSPRSEHLGRSGPFEVRADLEESMEFVDPGVAGESDASGDERVSDEETDLGTDWENLPSPRFCDIPSQPVEVSQSQSTQVSPPIASSSAGGMISSAAASVTSWFKAYTGHR
Vps34 kinase activity (radioactive PtdIns(3)P normalized against immunoprecipitated Myc-tagged Vps34), over-expressed ATG14L against empty vector, in the presence of Beclin 1 [1]: 2.5 ratio

B5: Beclin 1-AsRed (other)
chain: MEGSKASSSTMQVSFVCQRCSQPLKLDTSFKILDRVTIQELTAPLLTTAQAKPGETQEEEANSGEEPFIETRQDGVSRRFIPPARMMSTESANSFTLIGEASDGGTMENLSRRLKVTGDLFDIMSGQTDVDHPLCEECTDTLLDQLDTQLNVTENECQNYKRCLEILEQMNEDDSEQLQRELKELALEEERLIQELEDVEKNRKVVAENLEKVQAEAERLDQEEAQYQREYSEFKRQQLELDDELKSVENQVRYAQIQLDKLKKTNVFNATFHIWHSGQFGTINNFRLGRLPSVPVEWNEINAAWGQTVLLLHALANKMGLKFQRYRLVPYGNHSYLESLTDKSKELPLYCSGGLRFFWDNKFDHAMVAFLDCVQQFKEEVEKGETRFCLPYRMDVEKGKIEDTGGSGGSYSIKTQFNSEEQWTKALKFMLTNLKWGLAWVSSQFYNK
notes: Beclin 1 cDNA from mouse brain cloned into pAs-Red; not shown: AsRed fluorescent protein tag (pAs-Red vector)
binding result [5]: binds
binding result [6]: binds

B6: endogenous Beclin 1 of NIH 3T3 cells / mouse tissue (other)
chain: MEGSKASSSTMQVSFVCQRCSQPLKLDTSFKILDRVTIQELTAPLLTTAQAKPGETQEEEANSGEEPFIETRQDGVSRRFIPPARMMSTESANSFTLIGEASDGGTMENLSRRLKVTGDLFDIMSGQTDVDHPLCEECTDTLLDQLDTQLNVTENECQNYKRCLEILEQMNEDDSEQLQRELKELALEEERLIQELEDVEKNRKVVAENLEKVQAEAERLDQEEAQYQREYSEFKRQQLELDDELKSVENQVRYAQIQLDKLKKTNVFNATFHIWHSGQFGTINNFRLGRLPSVPVEWNEINAAWGQTVLLLHALANKMGLKFQRYRLVPYGNHSYLESLTDKSKELPLYCSGGLRFFWDNKFDHAMVAFLDCVQQFKEEVEKGETRFCLPYRMDVEKGKIEDTGGSGGSYSIKTQFNSEEQWTKALKFMLTNLKWGLAWVSSQFYNK
notes: NIH 3T3 is a mouse cell line (inference)
binding result [7]: binds

More lines, now with the values ahead:

binding result [2]: no binding
binding result [3]: no binding
B2: FLAG-Beclin 1 ECD domain (aa 244-448) (other)
chain: ELKSVENQVRYAQIQLDKLKKTNVFNATFHIWHSGQFGTINNFRLGRLPSVPVEWNEINAAWGQTVLLLHALANKMGLKFQRYRLVPYGNHSYLESLTDKSKELPLYCSGGLRFFWDNKFDHAMVAFLDCVQQFKEEVEKGETRFCLPYRMDVEKGKIEDTGGSGGSYSIKTQFNSEEQWTKALKFMLTNLKWGLAWVSSQFYNK
notes: also called E (Evolutionarily conserved domain); FLAG-E; not shown: FLAG tag at the N-terminus (pCMV-FLAG2 vector)

binding result [2]: no binding
binding result [4]: binds
B3: FLAG-Beclin 1 CCD domain (aa 144-269) (other)
chain: DQLDTQLNVTENECQNYKRCLEILEQMNEDDSEQLQRELKELALEEERLIQELEDVEKNRKVVAENLEKVQAEAERLDQEEAQYQREYSEFKRQQLELDDELKSVENQVRYAQIQLDKLKKTNVFN
notes: aa 144-269 is printed for the CCD domain of Beclin 1; also called C (Coiled-coil domain); FLAG-C; not shown: FLAG tag at the N-terminus (pCMV-FLAG2 vector)

binding result [2]: no binding
B7: FLAG-Beclin 1 BC (Bcl2-binding domain and Coiled-coil domain) (other)
chain: MEGSKASSSTMQVSFVCQRCSQPLKLDTSFKILDRVTIQELTAPLLTTAQAKPGETQEEEANSGEEPFIETRQDGVSRRFIPPARMMSTESANSFTLIGEASDGGTMENLSRRLKVTGDLFDIMSGQTDVDHPLCEECTDTLLDQLDTQLNVTENECQNYKRCLEILEQMNEDDSEQLQRELKELALEEERLIQELEDVEKNRKVVAENLEKVQAEAERLDQEEAQYQREYSEFKRQQLELDDELKSVENQVRYAQIQLDKLKKTNVFN
notes: also called FLAG-BC; not shown: FLAG tag at the N-terminus (pCMV-FLAG2 vector)

binding result [2]: no binding
binding result [3]: no binding
B8: FLAG-Beclin 1 BD domain (aa 1-150) (other)
chain: MEGSKASSSTMQVSFVCQRCSQPLKLDTSFKILDRVTIQELTAPLLTTAQAKPGETQEEEANSGEEPFIETRQDGVSRRFIPPARMMSTESANSFTLIGEASDGGTMENLSRRLKVTGDLFDIMSGQTDVDHPLCEECTDTLLDQLDTQL
notes: not shown: FLAG tag at the N-terminus (pCMV-FLAG2 vector)
